In paper doi:10.1101/311175 (bioRxiv, 2018):
Where two headings read alike, the source gives them in different places.

B1: Influenza A virus hemagglutinin fused to mEGFP (HA-wt-mEGFP) (natural protein)
chain: not shown
B2: E. coli glutamine synthetase fused to mEGFP (GlnA-mEGFP) (enzyme)
chain: MSAEHVLTMLNEHEVKFVDLRFTDTKGKEQHVTIPAHQVNAEFFEEGKMFDGSSIGGWKGINESDMVLMPDASTAVIDPFFADSTLIIRCDILEPGTLQGYDRDPRSIAKRAEDYLRSTGIADTVLFGPEPEFFLFDDIRFGSSISGSHVAIDDIEGAWNSSTQYEGGNKGHRPAVKGGYFPVPPVDSAQDIRSEMCLVMEQMGLVVEAHHHEVATAGQNEVATRFNTMTKKADEIQIYKYVVHNVAHRFGKTATFMPKPMFGDNGSGMHCHMSLSKNGVNLFAGDKYAGLSEQALYYIGGVIKHAKAINALANPTTNSYKRLVPGYEAPVMLAYSARNRSASIRIPVVSSPKARRIEVRFPDPAANPYLCFAALLMAGLDGIKNKIHPGEAMDKNLYDLPPEEAKEIPQVAGSLEEALNELDLDREFLKAGGVFTDEAIDAYIALRREEDDRVRMTPHPVEFELYYSV

Experiments:
[1] = biological target: the molecule itself
[2] = biological target: the molecule itself; assay: Number&Brightness

Row | Protein | stoichiometry N [1] | stoichiometry N [2]
1 | B1 | 3.17 | –
2 | B2 | – | 11.9
